From US20170088632A1 (OMEROS, published 2017) come the findings set out here.

Assay [1] concerns the target T1, human MASP-2 (human, UniProt O00187 16-686). Nature of the assay: cell-based or functional assay.
Assay [2] deals with T2, African Green monkey MASP-2 (in African Green monkey serum) (African Green monkey). The assay can be described thus: cell-based or functional assay.
The target of assay [3] is T1, human MASP-2. Nature of the assay: cell-based or functional assay. The source holds these as a separate data set.
In assay [4] the target is T1, human MASP-2. The assay can be described thus: cell-based or functional assay. The source holds these as a separate data set.
Assay [5] addresses T2, African Green monkey MASP-2 (in African …). The assay can be described thus: cell-based or functional assay. This is another data set of the same source.
In assay [6] the target is T1, human MASP-2. Nature of the assay: cell-based or functional assay. The source holds these as a separate data set.
Assay [7] concerns the target T3, human MASP-2A (catalytically inactive human MASP-2, Ser618 to Ala618) (human, UniProt O00187 16-686).
T3 construct: the ELISA and Biacore methods say only 'MASP-2A', so a tag may have been present; also called huMASP2A; huMASP-2A
Nature of the assay: SPR (Biacore), MASP-2A amine coupled to CM5 chip, scFv monomer in solution. On the technique in general: SPR reads the build-up and loss of mass on a sensor chip optically.

The target of assay [8] is T1, human MASP-2. Nature of the assay: cell-based or functional assay. The source holds these as a separate data set.
The target in assay [9] is T1, human MASP-2. The assay can be described thus: cell-based or functional assay. The source holds these as a separate data set.
Assay [10] has as its target T1, human MASP-2. The assay can be described thus: titration ELISA on MASP-2 (10 µg/ml). For orientation: An ELISA detects its analyte on a solid surface through an enzyme-linked reagent.
Assay [11] addresses T2, African Green monkey MASP-2 (in African …). Nature of the assay: cell-based or functional assay. This is another data set of the same source.
The target of assay [12] is rat MASP-2 (in rat serum) (rat, UniProt Q9JJS8 20-685). Nature of the assay: cell-based or functional assay.
Sequence of rat MASP-2 (in rat serum) (Q9JJS8 other isoform, or with tags, fused parts or gaps limits assumed): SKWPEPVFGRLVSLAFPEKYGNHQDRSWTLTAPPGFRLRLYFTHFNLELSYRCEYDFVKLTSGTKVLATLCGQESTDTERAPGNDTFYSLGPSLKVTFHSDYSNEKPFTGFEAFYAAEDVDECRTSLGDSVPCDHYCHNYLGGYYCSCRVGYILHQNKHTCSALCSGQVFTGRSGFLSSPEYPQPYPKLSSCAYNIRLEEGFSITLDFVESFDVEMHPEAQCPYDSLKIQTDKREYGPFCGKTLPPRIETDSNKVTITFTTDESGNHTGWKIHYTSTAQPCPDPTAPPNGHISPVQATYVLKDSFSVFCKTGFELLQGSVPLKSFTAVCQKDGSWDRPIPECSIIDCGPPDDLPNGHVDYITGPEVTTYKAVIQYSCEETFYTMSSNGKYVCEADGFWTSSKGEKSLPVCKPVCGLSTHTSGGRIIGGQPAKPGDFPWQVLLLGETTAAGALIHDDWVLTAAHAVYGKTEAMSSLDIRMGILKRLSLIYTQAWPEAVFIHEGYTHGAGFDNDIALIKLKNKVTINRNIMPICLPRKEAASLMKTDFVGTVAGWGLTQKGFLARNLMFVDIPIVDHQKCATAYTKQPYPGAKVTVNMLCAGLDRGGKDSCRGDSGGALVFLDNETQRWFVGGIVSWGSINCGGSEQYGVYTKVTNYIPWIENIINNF

For orientation: Kd means the concentration at which binding is half-saturated.

Bounds are passed on as bounds.

T1 sequence (O00187 16-686): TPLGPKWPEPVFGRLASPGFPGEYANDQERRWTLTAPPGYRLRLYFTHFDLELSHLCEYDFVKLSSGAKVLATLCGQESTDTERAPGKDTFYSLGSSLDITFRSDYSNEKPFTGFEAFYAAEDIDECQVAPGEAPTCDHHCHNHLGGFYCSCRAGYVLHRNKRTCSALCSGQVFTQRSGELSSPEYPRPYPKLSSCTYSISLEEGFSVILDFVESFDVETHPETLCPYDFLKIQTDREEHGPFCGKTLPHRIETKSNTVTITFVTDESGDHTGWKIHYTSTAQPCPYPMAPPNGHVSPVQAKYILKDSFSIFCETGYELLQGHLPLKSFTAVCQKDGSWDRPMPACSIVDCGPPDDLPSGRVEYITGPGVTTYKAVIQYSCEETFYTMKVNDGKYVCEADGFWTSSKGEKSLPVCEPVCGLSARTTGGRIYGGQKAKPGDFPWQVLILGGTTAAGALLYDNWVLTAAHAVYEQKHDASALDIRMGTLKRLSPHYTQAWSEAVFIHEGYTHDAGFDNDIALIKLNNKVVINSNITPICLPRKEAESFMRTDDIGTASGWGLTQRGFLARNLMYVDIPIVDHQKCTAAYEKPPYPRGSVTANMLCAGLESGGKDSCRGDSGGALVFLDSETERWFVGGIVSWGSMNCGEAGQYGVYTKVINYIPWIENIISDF
T3 sequence (O00187 16-686 S633A): as the sequence (O00187 16-686) above, with S618A counted along it

B1: scFv mother clone 18L16 (scFv)
scFv: QVTLKESGPVLVKPTETLTLTCTVSGFSLSNARMGVSWIRQPPGKALEWLAHIFSNDEKSYSTSLKSRLTISKDTSKSQVVLTMTNMDPVDTATYYCARMAILTAGGMDVWGQGTTVTVSSKLSGSASAPKLEEGEFSEARVSYVLTQPPSVSASPGQTASITCSGDKLGDKYVSWYQQKPGRSPVLVIYRDTKRPSGIPERFSGSNYGNTATLTISGTQAVDEADYYCQAWDSGSGVFGGGTKVTVLAAAGSEQKLISEEDLNSHHHHHH
For the molecule B1, in the assay with human MASP-2 [1], the “Functional IC50, C3b deposition, human serum Exp #1” value turned out to be 6.1 nM; the “Functional IC50, C3b deposition, human serum Exp #2” value is 96.8 nM; the “Functional IC50, C3b deposition, human serum Exp #3” value amounted to 52.3 nM; the “Functional IC50, C3b deposition, human serum Exp #4” value was found to be 53.5 nM. Besides, in assay [2], the “Functional IC50, C3b deposition, non-human primate serum Exp #1” value is 65.6 nM and the “Functional IC50, C3b deposition, non-human primate serum Exp #2” value came to 128 nM. Also, the “Inhibitory activity in Human Serum IC50 (C3b deposition, 0.5% human serum)” value with human MASP-2 [3] was 6.1 nM. In the assay with human MASP-2 [4], the “C3 Assay IC50 in dilute serum (1%), human serum Exp #1” value worked out at 53 nM; the “C3 Assay IC50 in dilute serum (1%), human serum Exp #2” value stood at 52 nM; the “C3 Assay IC50 in dilute serum (1%), human serum Exp #3” value is 97 nM; the “C3 Assay IC50 in dilute serum (1%), human serum mean” value came out at 67 nM. In assay [5], the “C3 Assay IC50, non-human primate serum Exp #1” value is 65 nM; the “C3 Assay IC50, non-human primate serum Exp #2” value was 154 nM; the “C3 Assay IC50, non-human primate serum mean” value stood at 110 nM. Moreover, in the assay with human MASP-2 [6], the “C3 convertase assay using 1% human serum, IC50 (first experiment)” value was 160 nM and the “C3 convertase assay using 1% human serum, IC50 (second experiment)” value turned out to be 193 nM.

B2: scFv mother clone 3F22 (scFv)
scFv: QVQLQQSGPGLVKPSQTLSLTCAISGDSVSSNSAAWNWIRQSPSRGLEWLGRTYYRSKWYNDYAVSVKSRITINPDTSKNQFSLQLNSVTPEDTAVYYCARDPFGVPFDIWGQGTMVTVSSKLSGSASAPKLEEGEFSEARVSYVLTQPPSVSVAPGQTARVTCGGNNIRSKNVHWYQQKPGQAPVLVVYDDTDRPSGIPERFSGSNSGNTATLTVSRVEAGDEADYYCQVWDTTTDHVVFGGGTKLTVLAAAGSEQKLISEEDLNSHHHHHH
With B2, in the assay with human MASP-2 [1], the “Functional IC50, C3b deposition, human serum Exp #1” value worked out at 20.6 nM; the “Functional IC50, C3b deposition, human serum Exp #2” value worked out at 36.7 nM; the “Functional IC50, C3b deposition, human serum Exp #3” value was 41.4 nM; the “Functional IC50, C3b deposition, human serum Exp #4” value stood at 68.8 nM. In assay [2], the “Functional IC50, C3b deposition, non-human primate serum Exp #1” value was 114 nM and the “Functional IC50, C3b deposition, non-human primate serum Exp #2” value came to 173 nM. Further, in the assay with human MASP-2 [3], the “Inhibitory activity in Human Serum IC50 (C3b deposition, 0.5% human serum)” value turned out to be 20.6 nM.

B3: scFv mother clone 9P13 (scFv)
scFv: QVQLQQSGPGLVKPSQTLSLTCAISGDSVSSNSAAWNWIRQSPSRGLEWLGRTYYRSKWYNDYAVSVKSRITINPDTSKNQFSLQLNSVTPEDTAVYYCARDPFGVPFDIWGQGTMVTVSSKLSGSASAPKLEEGEFSEARVSYELTQLPSVSVAPGQTARVTCGGNNIRSKNVHWYQQKPGQAPVLVVYDDTDRPSGIPERFSGSNSGNTATLTVSRVEAGDEADYYCQVWDTTTDHVVFGGGTKVTVLAAAGSEQKLISEEDLNSHHHHHH
In the case of B3, in the assay with human MASP-2 [1], the “Functional IC50, C3b deposition, human serum Exp #1” value is 28.9 nM; the “Functional IC50, C3b deposition, human serum Exp #2” value amounted to 120 nM; the “Functional IC50, C3b deposition, human serum Exp #3” value was found to be 17.3 nM; the “Functional IC50, C3b deposition, human serum Exp #4” value was 24.3 nM. Also, in assay [2], the “Functional IC50, C3b deposition, non-human primate serum Exp #1” value came to 99.3 nM and the “Functional IC50, C3b deposition, non-human primate serum Exp #2” value came out at 77.1 nM. Also, in the assay with human MASP-2 [3], the “Inhibitory activity in Human Serum IC50 (C3b deposition, 0.5% human serum)” value came out at 28.9 nM. Besides, the Kd in assay [7] came out at 220 nM.

B4: 18L16 mother clone, wild type IgG4 format (antibody, V domains shown)
VH: QVTLKESGPVLVKPTETLTLTCTVSGFSLSNARMGVSWIRQPPGKALEWLAHIFSNDEKSYSTSLKSRLTISKDTSKSQVVLTMTNMDPVDTATYYCARMAILTAGGMDVWGQGTTVTVS
VL: LTQPPSVSASPGQTASITCSGDKLGDKYVSWYQQKPGRSPVLVIYRDTKRPSGIPERFSGSNYGNTATLTISGTQAVDEADYYCQAWDSGSGVFGGGTKVTVLA
For the molecule B4, the “C3b deposition assay in 1% human serum, IC50” value with human MASP-2 [8] worked out at 59 nM. In the assay with human MASP-2 [6], the “C3 convertase assay using 1% human serum, IC50 (first experiment)” value is 33.9 nM; the “C3 convertase assay using 1% human serum, IC50 (second experiment)” value turned out to be 22 nM; the “C3 convertase assay using 1% human serum, fold improvement of IC50 (scFv to divalent form), first experiment” value was approximately 4.7 fold; the “C3 convertase assay using 1% human serum, fold improvement of IC50 (scFv to divalent form), second experiment” value was approximately 8.7 fold.

B5: 17N16 mother clone, wild type IgG4 format (antibody, V domains shown)
VH: QVQLQQSGPGLVKPSQTLSLTCAISGDSVSSTSAAWNWIRQSPSRGLEWLGRTYYRSKWYNDYAVSVKSRITINPDTSKNQFSLQLNSVTPEDTAVYYCARDPFGVPFDIWGQGTMVTVSS
VL: SYVLTQPPSVSVAPGQTARITCGGNNIGSKNVHWYQQKPGQAPVLVVYDDSDRPSGIPERFSGSNSGNTATLTVSRVEAGDEADYYCQVWDTTTDHVVFGGGTKLTVL
Regarding B5, the “C3b deposition assay in 90% NHS, IC50” value with human MASP-2 [9] turned out to be 15 nM. For the same molecule, the “C3b deposition assay in 1% human serum, IC50” value with human MASP-2 [8] was approximately 20 nM. Further, in the assay with human MASP-2 [6], the “C3 convertase assay using 1% human serum, IC50 (first experiment)” value worked out at 5.45 nM and the “C3 convertase assay using 1% human serum, IC50 (second experiment)” value was 3.09 nM.

B6: scFv mutagenesis clone #35 of 17D20 (scFv)
scFv: QVTLKESGPVLVKPTETLTLTCTVSGFSLSRGKMGVSWIRQPPGKALEWLAHIFSSDEKSYRTSLKSRLTISKDTSKNQVVLTMTNMDPVDTATYYCARIRRGGIDYWGQGTLVTVSSKLSGSASAPKLEEGEFSEARVQPVLTQPPSVSVSPGQTASITCSGDKLGDKFAYWYQQKPGHSPVLVIYQDNKRPSGIPGRFSGSNSGNTATLTISGTQAMDEADYYCQAWDSSTAVFGTGTKVTVLAAAGSEQKLISEEDLNSHHHHHH
notes: the mother scFv entry is used with this change; also called 17D20md#35 (monomer); 17D20md35
As to B6, in the assay with human MASP-2 [10], the Kd turned out to be 1.2 nM.

B7: MoAb #4 (OMS644), 17D20_3521N11 IgG2 (antibody)
heavy: QVTLKESGPVLVKPTETLTLTCTVSGFSLSRGKMGVSWIRQPPGKALEWLAHIFSSDEKSYRTSLKSRLTISKDTSKNQVVLTMTNMDPVDTATYYCARIRRGGIDYWGQGTLVTVSSASTKGPSVFPLAPCSRSTSESTAALGCLVKDYFPEPVTVSWNSGALTSGVHTFPAVLQSSGLYSLSSVVTVPSSNFGTQTYTCNVDHKPSNTKVDKTVERKCCVECPPCPAPPVAGPSVFLFPPKPKDTLMISRTPEVTCVVVDVSHEDPEVQFNWYVDGVEVHNAKTKPREEQFNSTFRVVSVLTVVHQDWLNGKEYKCKVSNKGLPAPIEKTISKTKGQPREPQVYTLPPSREEMTKNQVSLTCLVKGFYPSDIAVEWESNGQPENNYKTTPPMLDSDGSFFLYSKLTVDKSRWQQGNVFSCSVMHEALHNHYTQKSLSLSPGK
light: QPVLTQPPSLSVSPGQTASITCSGEKLGDKYAYWYQQKPGQSPVLVMYQDKQRPSGIPERFSGSNSGNTATLTISGTQAMDEADYYCQAWDSSTAVFGGGTKLTVLGQPKAAPSVTLFPPSSEELQANKATLVCLISDFYPGAVTVAWKADSSPVKAGVETTTPSKQSNNKYAASSYLSLTPEQWKSHRSYSCQVTHEGSTVEKTVAPTECS
Take B7: the “African Green Monkey C3 assay IC50” value in assay [11] turned out to be 18 nM.

B8: MoAb #5 (OMS645), 17D20_3521N11 IgG4 (antibody)
heavy: not shown
light: QPVLTQPPSLSVSPGQTASITCSGEKLGDKYAYWYQQKPGQSPVLVMYQDKQRPSGIPERFSGSNSGNTATLTISGTQAMDEADYYCQAWDSSTAVFGGGTKLTVLGQPKAAPSVTLFPPSSEELQANKATLVCLISDFYPGAVTVAWKADSSPVKAGVETTTPSKQSNNKYAASSYLSLTPEQWKSHRSYSCQVTHEGSTVEKTVAPTECS
B8: the “African Green Monkey C3 assay IC50” value in assay [11] is 16 nM. The “Inhibition of Rat C3b IC50” value in assay [12] is 500 nM.

B9: MoAb #6 (OMS646), 17D20_3521N11 IgG4 mutant (S228P hinge) (antibody)
heavy: not shown
light: QPVLTQPPSLSVSPGQTASITCSGEKLGDKYAYWYQQKPGQSPVLVMYQDKQRPSGIPERFSGSNSGNTATLTISGTQAMDEADYYCQAWDSSTAVFGGGTKLTVLGQPKAAPSVTLFPPSSEELQANKATLVCLISDFYPGAVTVAWKADSSPVKAGVETTTPSKQSNNKYAASSYLSLTPEQWKSHRSYSCQVTHEGSTVEKTVAPTECS
In the case of B9, in assay [11], the “African Green Monkey C3 assay IC50” value was 14 nM. In addition, the “Inhibition of Rat C3b IC50” value in assay [12] is more than 500 nM.

B10: 17D20 mother clone, wild type IgG4 format (antibody, V domains shown)
VH: QVTLKESGPVLVKPTETLTLTCTVSGFSLSRGKMGVSWIRQPPGKALEWLAHIFSSDEKSYRTSLKSRLTISKDTSKNQVVLTMTNMDPVDTATYYCARIRAGGIDYWGQGTLVTVSS
VL: QPVLTQPPSVSVSPGQTASITCSGDKLGDKFAYWYQQKPGHSPVLVIYQDNKRPSGIPGRFSGSNSGNTATLTISGTQAMDEADYYCQAWDSSTAVFGTGTKVTVLA
As to B10, the “C4b deposition in 90% human serum, IC50 relative to the C3b deposition assay” value with human MASP-2 [9] is approximately 3 fold. Moreover, the “C3b deposition assay in 1% human serum, IC50” value with human MASP-2 [8] amounted to 22 nM. Also, in the assay with human MASP-2 [6], the “C3 convertase assay using 1% human serum, IC50 (first experiment)” value came out at 7.39 nM and the “C3 convertase assay using 1% human serum, IC50 (second experiment)” value was 10.3 nM.
